The target of this experiment is C1-Esterase (UniProt P09871). Kind of experiment: cell-based or functional assay.
Sequence of C1-Esterase (P09871 16-688 limits assumed): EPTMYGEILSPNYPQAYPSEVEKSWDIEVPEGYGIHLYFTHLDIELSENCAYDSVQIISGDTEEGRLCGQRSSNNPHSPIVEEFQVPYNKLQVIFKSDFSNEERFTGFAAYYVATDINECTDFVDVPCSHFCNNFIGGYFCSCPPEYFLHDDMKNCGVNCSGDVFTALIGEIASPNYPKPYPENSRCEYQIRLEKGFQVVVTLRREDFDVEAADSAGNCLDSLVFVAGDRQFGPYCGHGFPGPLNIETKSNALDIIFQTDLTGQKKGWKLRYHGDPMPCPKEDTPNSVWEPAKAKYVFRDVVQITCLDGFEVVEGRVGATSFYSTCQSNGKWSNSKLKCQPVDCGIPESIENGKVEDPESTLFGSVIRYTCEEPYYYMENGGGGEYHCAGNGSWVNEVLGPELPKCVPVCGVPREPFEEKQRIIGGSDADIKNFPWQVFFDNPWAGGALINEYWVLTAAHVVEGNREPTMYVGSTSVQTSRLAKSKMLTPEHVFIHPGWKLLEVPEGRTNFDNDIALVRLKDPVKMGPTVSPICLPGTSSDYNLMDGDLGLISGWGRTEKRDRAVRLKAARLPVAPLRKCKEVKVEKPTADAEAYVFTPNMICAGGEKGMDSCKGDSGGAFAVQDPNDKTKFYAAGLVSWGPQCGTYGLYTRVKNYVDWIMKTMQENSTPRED

As for “Mal-PEG-C1 INH (C1 esterase inhibitor PEGylated with 40 kDa maleimide mPEG) (from UniProt P05155 23-500)”, the in vitro C1 inhibitory activity is 6.1 U/mg and the in vitro C1 inhibitory activity, percent of native C1 inhibitor was determined as 86%.
The like results for “Mal-U-PEG-C1 INH (C1 inhibitor PEGylated with branched 40k mPEG-maleimide) (from UniProt P05155 23-500)” were, in that order, 3.3 U/mg and 47%.

These data come from patent US20140309175A1.
